Results on one protein are retold here after publication PMC2289953 (The Journal of Cell Biology, 1991).

This data set deals with the molecule itself. The experiment in a line: SDS-PAGE.

B1: radixin (natural protein, UniProt P26043 1-583, looked up)
chain: MPKPINVRVTTMDAELEFAIQPNTTGKQLFDQVVKTVGLREVWFFGLQYVDSKGYSTWLKLNKKVTQQDVKKENPLQFKFRAKFFPEDVSEELIQEITQRLFFLQVKEAILNDEIYCPPETAVLLASYAVQAKYGDYNKEIHKPGYLANDRLLPQRVLEQHKLTKEQWEERIQNWHEEHRGMLREDSMMEYLKIAQDLEMYGVNYFEIKNKKGTELWLGVDALGLNIYEHDDKLTPKIGFPWSEIRNISFNDKKFVIKPIDKKAPDFVFYAPRLRINKRILALCMGNHELYMRRRKPDTIEVQQMKAQAREEKHQKQLERAQLENEKKKREIAEKEKERIEREKEELMERLRQIEEQTVKAQKELEEQTRKALELEQERQRAKEEAERLDRERRAAEEAKSAIAKQAADQMKNQEQLAAELAEFTAKIALLEEAKKKKEEEATEWQHKAFAAQEDLEKTKEELKTVMSAPPPPPPPPVIPPTENEHDEQDENSAEASAELSSEGVMNHRSEEERVTETQKNERVKKQLQALSSELAQARDETKKTQNDVLHAENVKAGRDKYKTLRQIRQGNTKQRIDEFEAM
Regarding B1, the “stoichiometry N” value worked out at 2.

As a reminder, the stoichiometry N is a count of units in the complex or per binding partner.
